From publication PMC8113585 (2020) come the findings set out here.

For this assay, the target named is SARS-CoV-2 full-length nucleocapsid (N) protein (N-FL: 1-419) (SARS-CoV-2, UniProt P0DTC9 1-419). The assay is described as follows: ELISA.

B1: human monoclonal antibody nCoV396, recombinant IgG1 (antibody, V domains shown)
VH: QVQLVESGGGVVQPGRSLRLSCAASGFTFSSYIMHWVRQAPGKGLEWVAVISYDGSNEAYADSVKGRFTISRDNSKNTLYLQMSSLRAEDTGVYYCARETGDYSSSWYDSWGRGTLVTVSS
VL: QLVLTQSPSASASLGASVKLTCTLSSGHSNYAIAWHQQQPEKGPRYLMKVNSDGSHTKGDGIPDRFSGSSSGAERYLTISSLQSEDEADYYCQTWGTGIQVFGGGTKLTVL
In turn, B1 registered an EC50 of 3.2 ng/mL.
